Results published in paper PMC10638775, “Development of synthetic modulator enabling long-term propagation and neurogenesis of human embryonic stem cell-derived neural progenitor cells”.

Target: FGFR1 extracellular domain (human, UniProt P11362 22-376)
Test: SPR; 1:1 model; ka 2.20E10 1/Ms, kd 54.9 1/s; SPR: Biacore T200, CM5 amine coupling, HBS running buffer (pH, salt, temperature not stated); flow cytometry: PBS, 1% BSA, 0.1% sodium azide, room temperature
Conditions: protein: commercial; stem-loop (Mfold)

FGFR1 extracellular domain, sequence (P11362 22-376): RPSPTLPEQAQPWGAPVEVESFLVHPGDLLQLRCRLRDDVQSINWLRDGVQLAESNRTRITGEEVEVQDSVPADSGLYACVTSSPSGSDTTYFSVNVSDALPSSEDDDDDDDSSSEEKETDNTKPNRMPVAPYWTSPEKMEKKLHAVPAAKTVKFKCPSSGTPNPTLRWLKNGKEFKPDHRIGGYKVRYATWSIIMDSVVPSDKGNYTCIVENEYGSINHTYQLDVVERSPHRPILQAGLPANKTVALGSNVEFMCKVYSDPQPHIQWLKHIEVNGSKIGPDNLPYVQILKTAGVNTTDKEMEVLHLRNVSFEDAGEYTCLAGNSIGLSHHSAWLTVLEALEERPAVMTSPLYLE

## GCCGCGTCTTTATGGCTGGGGATGGTGTGGGTTGCGGC (structured_DNA) [FGFR-binder]
  Kd: 2.5 nM
